# Results as given in the DeepSol protein solubility set.
# Experiment: soluble on expression in E. coli; label from the status in PepcDB or PDB records
row,Sequence,soluble on expression in E. coli
1,MAHHHHHHMELLTSVFQRHPPALRLHRELTIALADGDSARAADLASVLATTVQRVVAAEADSSDAATPPEGHANTGHFSQRDIPVAGLEDVEEAVEKTRQTLLREATVRVSSGVARDTGGSAISSEPAAAERSLPFWRDPERLCVTILESMFETEVLGGESQDTLTAAGNRAAEHEAEQVRILDAYLDKEGARWNAQKAAIAKIVLDVTRSLGLTPEDLQAFEGISASAGAGAAAAAGERKLNVLRHSNLVIRGEMPSAPLSSTASECVAEGVETELRALEERMSSLGQPLTPWEVRMARYELQMSKSKMRYVVGVHKELQLALDHSAALRASLREKSTAEVTFTTGTEVFMAEVIRALNEGADAYSANVTAEGAQLTVSNVKAREAVESPVLPFTFMLKGSLWFTTAPSRPPSSSSD,soluble
2,MPGTRFSGKVVLISGSSKGIGQATAVKFAAEGAKIVLNGRSADDVEKTRKLCMEVGAKPWDLLPTVGDITNEDFVKMMVNTVIHNFGKLDILINNAGTLEVDMTGKEGWEMGVDVMDRSWNSNFKSVLMLTQAAMPHLIKTKGDIVNVSTFLSSGPIGVMSMPYYAVPKAALDQMSRSMAHEYMLKGVRLNTVNPGLVSTSFFARLPGVGDDNARKMENYVQSKTEYIPLGRVCQASDVAETILFLADRKVSECIVGQSIIIDGGSRLCCNIDMSDFKEQMAKA,not soluble
3,MIIDDIINKIKSSNKIAISFHISPDGDSIGSSLGLLNGLRSIGKETYILSKEVVPESFEFLNFAREIDGNHFEVEDNTDLLITLDCGNIERLNFDTSDMISEDKKYTVINIDHHVTNDSFGDLNYINTKAASVGEIVYDLLSKMNISIDRTIAACLYTSILTDTGSFRFSNTTLNTHVVAGNLISTGLDFSEIHRKIFDNKKFEALKLQALVLNDMYLTFNNKLCVMKVTHDFIEKANAEDVDTGDLVSLGLKVNTAEVCMLLKEKDDCIKVSLRSKSYVDVRKIAEKFGGGGHIRAAGLSINSNILDAEKMILSEIQGELLEHHHHHH,not soluble
4,AKDAAFTVDGLSLTSKTNTVSTAISGMTFDLVAPSAAGATTTVTVATNTDGLKASLQSFVDSYNTLATLVTSLTKGSISDKGVFTAAALTGDATPRALLATIRDQLAGASSRAGLSALSQLGIKTQQSNGTLSLDTATFTAALNDKKLGSQIQTMFTGTGATNADGTVDGGLVARMSKALLPYTKADGVLASKTSSLTKVQTRIASDQDALDRRIESLTASLTKKYNAMDLVVGQLKATATSITSIFEAMNAQKNAS,not soluble
5,MERECEESVVVAVVTEPRFTQRYRDYLEEQKLLDRLHRVAKLRDGAVALPVLAESLSEQHLQELRDRVAPGSTCVLTRLPDPLPSKKARVRSPAQILCLEVRRWVEDRGVTWSAELEADLPRSWQRHGDLMLLSEDCFQATLWKGLEPELWETVASALGVQRLAKRGRVLPDGTRTPSVTLLLGDHGWVEHMDNGIRYKFDVTQCMFSFGNITEKLRVASLSCAGEVLVDLYAGIGYFTLPFLVHAGAAFVHACEWNPHAVVALRNNLEINGVADRCQIHFGDNRKLKLSDIADRVNLGLIPSSKEGWPVACQVLRKDVGGILHIHQNVESFSGKTPQPPGSNNVEKEHWPRPQKITTDTQGNGTTENFRGEISSANKPEWWRWAESAETQIASLLHQVHGKPWRTRILHVHPVKSYAPHVDHIVLDLECRPLTSSWPEGVDLLTQ,soluble
6,MSLPLVTLNSVRFAGMATCVPKRVVSNLTDCKPQIRPERERLVRNIGIELRRLTQEWQCFSDLAFDAASKLIESLEWKLEEIDALIVVTQSPDYLAPATAIILQDRLGLPHTTLAFDVNLGCSGYPFGLHLLGSLISAGGIKKGLVLVGDSGAQLNDPIFSDAGTATAMEFCADAPPMYFDLNSDGSGHKAIILPVGGHREPVGIQHLVPFRENENDHWHRAIDLQLDGTAVLSFSTQRVPPAVEKLLEYANASKDEVDYFIFHQANRMINETIRKKLALPVEKVPSTLRDFGNTSGASLPVTMTARINKQLEEGSKRLVLSGFGIGLSWGTCLVDIQGAKFPDLIESEGHHHHHH,soluble
7,MNRFFILSGCSGGGKSTLLAELARRGFATVEEPGRRIVIEETRNGGTALPWIDMQAFARRAIAMALEDRRVTPKEGLVFFDRGLIDAASALHHISGDRFVNTLRDTHRYNSLVFLTPPWPEIYQSDDERKHGFDAAVEEYERLVRDYEGLGYDIVVLPKSAVAERADLILTRIGLEHHHHHH,not soluble
8,MSNDKSAEVVVLPRENDEESKEPVLKNQFDLSTFDIDSPEIDLTHTRADHIPDLTGFPKIEELRMRNNLLVSISPTISSLVTLTSLDLYENQLTEISHLESLVNLVSLDLSYNRIRQINGLDKLTKLETLYLVSNKIEKIENLEALTQLKLLELGDNRIKKIENIGHLVNLDELFIGKNKIRQLEGVETLQKLSVLSLPGNRIVKIENVEQLNNLKELYLSDQGLQDIHGVEPLTNLLLLDVANNEIKTFSGVERLESLNDFWANDNKVESFSEIEQLSKLKGLQTVYLERNPFYFNDTNQYRRKVMMTLTQVTQIDATTCRKPIE,not soluble
9,MFEAEIDCNIPGALWCGELYVLEQDVVFPDLLRIDRFCTSKSKKMFRFDVYPGSDFPTVDLELTYKFNHNCSADGETYCVKPKWSKKVNGRVGQSVGFDIDARPHGKPSRCKPPFYF,not soluble
10,MTVAVSPDGLPALVLNADYRPLSYYPLSLWSWQDAIKAVFLDRVNIVAEYEHAVSSPTFSMKLPSVVSLKAYVKPSRHPAFTRFNVFLRDRFQCQYCGTPDDLTFDHVIPRHRGGATTWENVVAACSPCNLRKGGMMPAHAKMWPLQKPYQPTVHDLHNNGRLFPPNHLHESWMDYLYWDVELEPLEHHHHHH,not soluble
11,MLESVVAYGIIAGARAITGLRSLWLGTTPIPKQRIYYANHSSHGDFVLLWASLPPEVRRRTRPVAGADYWNKAGLRSYVINKVFNGVLVDRQRSEANANPLEPLDRALDGGDSLIIFPEGTRNLDDEVKLLPFKSGIYHLSLAHPDVELVPVWLANLNRVMPKGRMLPLPLLCTLSFGKPLVATAEEGKEAFLERARMALLDLAPEEEA,not soluble
12,MLPMQLPFQRARRLCLRAALAAIASAAHADDGTIVITGTITDTTCVIEDPAGPTHTKVVQLPKISKSALAKDGDEAGRTPFLITLKNCPSSLNNGVKAYFEPGPTTDYATGDLKAYSIAYNNNPATTQNAIIAASEAQGVQIRISNQNGTKIPMGVDAAAQNAQAFNPVTDTADNAKKKVTLRYLASYVKKSGNITTGQLTTYVGFSMIYP,not soluble
13,MSLVEMKFLTDRMLGRLTRWLRISGYDTVSVSELEFDEEEDEFMLRNLRDRILLTKDRELYRKSVKEGRKAILIRSDSLEGQMRELMERGVKFQIVMDRCSLCNTPLRKPSREEAMEVIEREKLSEDMLEFELWYCEKCRKLYWMGGHWKNMTRFLRKFESEGHHHHHH,soluble
14,MAHHHHHHSLKTKIIVIVGPTAVGKTALAIEVAKRFNGEVVSGDSQQVYRGLDIGTAKASPEEQAAVPHHLIDVREITESYSAFDFVSEAKMTIEDIHSRGKLAIIAGGTGLYIQSLLEGYHLGGETPHEEILAYRASLEPYSDEELAHLVEQAGLEIPQFNRRRAMRALEIAHFGQDLENQEILYEPLIICLDDERSQLYERINHRVDLMFEAGLLDEAKWLFDHSPNVQAAKGIGYKELFPYFRGEQTFEEARESLKQATRRFAKRQLTWFRNRMQVTFYQIGESGVQDRILSQIEEFLDDEG,not soluble
15,MSLYFNKVLGMKEFGKDEKVFYRVAIRAIILQGDKILMVKSNTGDYKFPGGGVEKGETPEETLRREVQEETGYILNEVKEKFGVLIERDRRRRMGCTIFEMTSHYYLCSVIEERGEQHLDKYEEELGFTPIWISLDEVIRENENILNQREKINPWVKRETFVLKKIKEYLNENEGHHHHHH,soluble
